The values below come from US20160208003A1 (AFFITECH RESEARCH, published 2016).

Numbering of substitutions follows the chain as printed.

Experiment [1] concerns the target T1, human CC chemokine receptor 4 (CCR4) (human, UniProt P51679 1-360).
T1 sequence (looked up): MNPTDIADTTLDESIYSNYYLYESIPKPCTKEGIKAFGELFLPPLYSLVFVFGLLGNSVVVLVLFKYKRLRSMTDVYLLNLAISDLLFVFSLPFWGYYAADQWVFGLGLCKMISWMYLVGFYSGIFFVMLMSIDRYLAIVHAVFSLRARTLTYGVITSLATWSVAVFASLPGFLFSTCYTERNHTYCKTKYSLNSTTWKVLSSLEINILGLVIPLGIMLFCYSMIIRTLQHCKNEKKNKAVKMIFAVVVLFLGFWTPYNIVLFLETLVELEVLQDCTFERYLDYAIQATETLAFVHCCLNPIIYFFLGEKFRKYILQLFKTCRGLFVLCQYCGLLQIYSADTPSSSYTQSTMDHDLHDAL
Kind of experiment: cell-based or functional assay.

Experiment [2] concerns the target T1, human CC chemokine receptor 4 (CCR4). As to the kind of experiment: calculated from the IC50; CCRF-CEM cells, competitor 0.7 nM biotinylated IgG 9E. As to the method:
(§1) DT40 and CCRF-CEM cells were cultivated as described in Example 2. The cells were harvested from culture flasks, washed 2 times with PBS (400×g, 5 min, 4° C.) and resuspended in PBS containing 0.2% BSA and 0.09% NaN3. 1×10^5 cells per well were aliquoted into V-shaped 96-well plates (Griner Bio-One, Frikenhausen, Germany). Cells were centrifuged (400×g, 5 min, 4° C.) and resuspended in 50 μl IgG 9E10J or KM3060var (dilution series starting at 5 μg/ml) mixed with biotinylated competitor antibody 9E (0.1 or 0.5 μg/ml). The cells were incubated for 2 hours at 4° C., mixing with a pipette every 45 min. The cells were washed three times with 150 μl PBS with 0.2% BSA and 0.09% NaN3 and stained with 3 μg/ml streptavidin PE (BD Biosciences) for 45 minutes at 4° C. Cells were washed, resuspended in 200 μl PBS with 0.2% BSA and 0.09% NaN3, and transferred to a U-shaped 96 well Costar (Corning, Schiphol-Rijik, The Netherlands) plate for flow cytometry using an FACS Canto II flow cytometer (BD Biosciences, Heidelberg, Germany).

The target is the same in experiment [3]. As to the kind of experiment: calculated from the IC50; DT-40-CCR4+ cells, competitor 0.7 nM biotinylated IgG 9E. The procedure:
as §1

Experiment [4] shares this target. As to the kind of experiment: flow cytometry, saturation titration of IgG on CCRF-CEM cells; one site-specific binding fit. Background: A flow cytometer gives signals particle by particle.
For experiment [5] the target is unchanged. As to the kind of experiment: calculated from the IC50 (KD=IC50/(1+[bio-MDC]/KD MDC)); DT-40-CCR4+ cells, competitor biotinylated MDC.
Experiment [6] shares this target. As to the kind of experiment: flow cytometry competition on CCRF-CEM cells; unlabelled IgG titrated, competitor 0.7 nM biotinylated IgG 9E. The procedure:
(§2) Further competition experiments were carried out to assess whether or not the test antibodies recognise the same or overlapping epitopes, and to determine their relative affinities for CCR4. Antibodies 9E10J, 9E and KM3060var were tested using labelled 9E as a competitor.
as §1

Experiment [7] shares this target. Kind of experiment: flow cytometry competition on DT-40-CCR4+ cells; unlabelled IgG titrated, competitor 0.7 nM biotinylated IgG 9E. As to the method:
as §2, §1

For experiment [8] the target is unchanged. As to the kind of experiment: flow cytometry competition on DT-40-CCR4+ cells; unlabelled IgG titrated, competitor 3.3 nM biotinylated IgG 9E. As to the method: as §2, §1
For experiment [9] the target is unchanged. Kind of experiment: flow cytometry, IgG titration on CCRF-CEM cells; one site-specific binding fit (Prism). The procedure:
(§3) The IgG forms of antibodies 17G, 9E and KM3060var using various CCR4⁺ cell types were used (see Example 2).
(§4) For the flow cytometry experiments, the cells were harvested from the culture flasks, washed 2 times with PBS, re-suspended in PBS with 0.2% BSA and 0.09% NaN₃ and finally aliquoted 1×10⁵ cells per well into V-shaped 96-well plates (Greiner Bio-One, Frickenhausen, Germany). Cells were centrifuged at 400×g for 5 min and then incubated at 4° C. for 45 min with different antibody dilutions.
(§5) After washing with PBS with 0.2% BSA and 0.09% NaN₃, the cells were stained with 10 μg/ml of RPE-conjugated goat anti-human IgG (AbDSerotec, Düsseldorf, Germany) for 30 minutes at 4° C. The stained cells were washed, re-suspended in 200 μl PBS with 0.2% BSA and 0.09% NaN₃ and transferred to a U-shaped 96-well plate (Corning, Schiphol-Rijk, The Netherlands) for acquisition on EasyCyte flow cytometer (Guava Technologies, Hayward, Calif., USA).

The target is the same in experiment [10]. Kind of experiment: flow cytometry, IgG titration on CCR4+ DT40 cells (2); one site-specific binding fit (Prism). As to the method:
as §3, §4, §5

B1: 9E10J IgG (full length human IgG1, lambda) (antibody, V domains shown)
VH: QVQLVQSGAEVKKPGSSVKVSCKASGGTFSSYAISWVRQAPGQGLEWMGGIIPIFGTANYAQKFQGRVTMTRDTSTSTVYMELSSLRSEDTAVYYCARRGGSYFDYWGQGTLVTVSS
VL: SYVLTQPPSASGTPGQSVTISCSGSTSNIGSHYVFWYQQLPGTAPRLLIYRNHQRPSGVPDRLSGSKSGTSASLAISGLRSEDEADYYCAVWDDTLSGWVFGGGTKLTVLG
notes: also called IgG 9E10J; unmodified 9E10J
Consider B1, for which the “ADCC of CCRF-CEM cells, EC50 (mean, N=2)” value in [1] came out at 8.7 ng/mL. Further, the Kd in experiment [2] is 0.06 nM; in experiment [3] it was 0.05 nM; in experiment [4] it was 0.13 nM; in [5], 0.01 nM. Moreover, the 50% inhibitory concentration (IC50) in experiment [6] came out at 0.07 nM; in experiment [7], 0.06 nM; in [8], 0.15 nM.

B2: 9E IgG (full length human IgG1, lambda) (antibody, V domains shown)
VH: B1 VH with S31N, M70I, R72A, T74E, V79A
VL: B1 VL
notes: also called IgG 9E; IgG1 9E
Take B2: the dissociation constant (Kd) in [2] was 0.33 nM; in [3], 0.39 nM; in experiment [9] it was 0.39 nM; in experiment [10] it was 0.17 nM; in experiment [4] it was 0.37 nM. Also, the IC50 in experiment [6] came out at 0.38 nM; in experiment [7], 0.44 nM; in experiment [8], 3.5 nM.

One may read the Kd as the concentration at which binding is half-saturated. The IC50 is the concentration at which inhibition is half-maximal.
